Measured values taken from patent US20200048612.

Target: Histone H3 trimethylated at lysine 27 (H3K27me3), nucleosomal, in human ES cells

B1: HA-tagged JMJD3c (catalytic domain-containing C-terminus of JMJD3) (protein)
chain: QSEEIQGREKSRPDLGGASKAKPPTAPAPPSAPAPSAQPTPPSASVPGKKAREEAPGPPGVSRADMLKLRSLSEGPPKELKIRLIKVESGDKETFIASEVEERRLRMADLTISHCAADVVRASRNAKVKGKFRESYLSPAQSVKPKINTEEKLPREKLNPPTPSIYLESKRDAFSPVLLQFCTDPRNPITVIRGLAGSLRLNLGLFSTKTLVEASGEHTVEVRTQVQQPSDENWDLTGTRQIWPCESSRSHTTIAKYAQYQASSFQESLQEEKESEDEESEEPDSTTGTPPSSAPDPKNHHIIKFGTNIDLSDAKRWKPQLQELLKLPAFMRVTSTGNMLSHVGHTILGMNTVQLYMKVPGSRTPGHQENNNFCSVNINIGPGDCEWFAVHEHYWETISAFCDRHGVDYLTGSWWPILDDLYASNIPVYRFVQRPGDLVWINAGTVHWVQATGWCNNIAWNVGPLTAYQYQLALERYEWNEVKNVKSIVPMIHVSWNVARTVKISDPDLFKMIKFCLLQSMKHCQVQRESLVRAGKKIAYQGRVKDEPAYYCNECDVEVFNILFVTSENGSRNTYLVHCEGCARRRSAGLQGVVVLEQYRTEELAQAYDAFTLVRARRARGQRRRALGQAAGTGFGSPAAPFPEPPPAFSPQAPASTSR
  H3K27me3 level after doxycycline-induced expression in JMJD3c-hESCs: Dox treatment (1 µg/ml) induced HA-JMJD3c expression and a significant decrease in H3K27me3 in all hESCs
  H3K27me3 level by immunostaining and immunoblotting, 8 hours after introduction of synthetic mRNA into hESCs: the introduction of the JMJD3c mRNA induced a more significant decrease in H3K27me3 as compared to the JMJD3f mRNA

B2: HA-tagged full-length JMJD3 (protein)
chain: MHRAVDPPGARAAREAFALGGLSCAGAWSSCPPHPPPRSAWLPGGRCSASIGQPPLPAPLPPSHGSSSGHPSKPYYAPGAPTPRPLHGKLESLHGCVQALLREPAQPGLWEQLGQLYESEHDSEEATRCYHSALRYGGSFAELGPRIGRLQQAQLWNFHTGSCQHRAKVLPPLEQVWNLLHLEHKRNYGAKRGGPPVKRAAEPPVVQPVPPAALSGPSGEEGLSPGGKRRRGCNSEQTGLPPGLPLPPPPLPPPPPPPPPPPPPLPGLATSPPFQLTKPGLWSTLHGDAWGPERKGSAPPERQEQRHSLPHPYPYPAPAYTAHPPGHRLVPAAPPGPGPRPPGAESHGCLPATRPPGSDLRESRVQRSRMDSSVSPAATTACVPYAPSRPPGLPGTTTSSSSSSSSNTGLRGVEPNPGIPGADHYQTPALEVSHHGRLGPSAHSSRKPFLGAPAATPHLSLPPGPSSPPPPPCPRLLRPPPPPAWLKGPACRAAREDGEILEELFFGTEGPPRPAPPPLPHREGFLGPPASRFSVGTQDSHTPPTPPTPTTSSSNSNSGSHSSSPAGPVSFPPPPYLARSIDPLPRPPSPAQNPQDPPLVPLTLALPPAPPSSCHQNTSGSFRRPESPRPRVSFPKTPEVGPGPPPGPLSKAPQPVPPGVGELPARGPRLFDFPPTPLEDQFEEPAEFKILPDGLANIMKMLDESIRKEEEQQQHEAGVAPQPPLKEPFASLQSPFPTDTAPTTTAPAVAVTTTTTTTTTTTATQEEEKKPPPALPPPPPLAKFPPPSQPQPPPPPPPSPASLLKSLASVLEGQKYCYRGTGAAVSTRPGPLPTTQYSPGPPSGATALPPTSAAPSAQGSPQPSASSSSQFSTSGGPWARERRAGEEPVPGPMTPTQPPPPLSLPPARSESEVLEEISRACETLVERVGRSATDPADPVDTAEPADSGTERLLPPAQAKEEAGGVAAVSGSCKRRQKEHQKEHRRHRRACKDSVGRRPREGRAKAKAKVPKEKSRRVLGNLDLQSEEIQGREKSRPDLGGASKAKPPTAPAPPSAPAPSAQPTPPSASVPGKKAREEAPGPPGVSRADMLKLRSLSEGPPKELKIRLIKVESGDKETFIASEVEERRLRMADLTISHCAADVVRASRNAKVKGKFRESYLSPAQSVKPKINTEEKLPREKLNPPTPSIYLESKRDAFSPVLLQFCTDPRNPITVIRGLAGSLRLNLGLFSTKTLVEASGEHTVEVRTQVQQPSDENWDLTGTRQIWPCESSRSHTTIAKYAQYQASSFQESLQEEKESEDEESEEPDSTTGTPPSSAPDPKNHHIIKFGTNIDLSDAKRWKPQLQELLKLPAFMRVTSTGNMLSHVGHTILGMNTVQLYMKVPGSRTPGHQENNNFCSVNINIGPGDCEWFAVHEHYWETISAFCDRHGVDYLTGSWWPILDDLYASNIPVYRFVQRPGDLVWINAGTVHWVQATGWCNNIAWNVGPLTAYQYQLALERYEWNEVKNVKSIVPMIHVSWNVARTVKISDPDLFKMIKFCLLQSMKHCQVQRESLVRAGKKIAYQGRVKDEPAYYCNECDVEVFNILFVTSENGSRNTYLVHCEGCARRRSAGLQGVVVLEQYRTEELAQAYDAFTLVRARRARGQRRRALGQAAGTGFGSPAAPFPEPPPAFSPQAPASTSR
  H3K27me3 level by immunostaining and immunoblotting, 8 hours after introduction of synthetic mRNA into hESCs: the introduction of the JMJD3c mRNA induced a more significant decrease in H3K27me3 as compared to the JMJD3f mRNA
